Tests used:
[1] = molecular target: T1, mAdipoR1 (Mus musculus, UniProt Q91VH1); test: Xenopus oocytes injected with AdipoR1 cRNA, two-electrode voltage clamp recording; assay type: cell-based
T1 construct: expressed in transfected cells; host or cells: Xenopus oocytes (stage V to VII) injected with cRNA
T1 sequence (Q91VH1 1-375): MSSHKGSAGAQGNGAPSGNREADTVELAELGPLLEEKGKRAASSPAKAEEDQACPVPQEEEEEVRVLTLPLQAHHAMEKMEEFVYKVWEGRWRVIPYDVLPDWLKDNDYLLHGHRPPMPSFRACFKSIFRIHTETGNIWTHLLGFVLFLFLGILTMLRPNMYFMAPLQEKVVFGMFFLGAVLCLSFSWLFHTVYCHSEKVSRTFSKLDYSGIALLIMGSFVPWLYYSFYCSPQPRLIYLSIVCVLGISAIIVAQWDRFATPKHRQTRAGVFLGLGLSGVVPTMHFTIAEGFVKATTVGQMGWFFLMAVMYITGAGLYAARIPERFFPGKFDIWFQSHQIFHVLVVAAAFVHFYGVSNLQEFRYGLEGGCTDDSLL
Description: Stage V to VII oocytes were treated with 2 mg/ml of collagenase S-1 (Nitta gelatin) in calcium ion-free saline solution (82.5 mM NaCl, 2 mM KCl, 1 mM MgCl2, and 5 mM HEPES, pH 7.5) for 1 to 2 hr at room temperature. The resulting oocytes were then microinjected with 50 ng of cRNA for mAdipoR1. The cRNA was synthesized from linearized modified pSPUTK. The injected oocytes were incubated for 3 days at 18° C. in a bath solution (88 mM NaCl, 1 mM KCl, 0.3 mM Ca(NO3)2, 0.4 mM CaCl2, 0.8 mM MgSO4, 2.4 mM NaHCO3, 15 mM HEPES, pH 7.6) supplemented with 10 μg/ml of penicillin and streptomycin.
Whole cell currents were recorded with a two-electrode voltage clamp technique. Intracellular glass electrodes were filled with 3M KCl. Signals were amplified with an OC-725C amplifier (Warner Instruments), low-pass filtered at 50 Hz, and digitized at 1 kHz. A control bath solution contained 115 mM NaCl, 2.5 mM KCl, 1.8 mM CaCl2, and 10 mM HEPES. It was titrated to pH 7.2 with NaOH. A calcium ion free solution containing 1.8 mM BaCl2 instead of CaCl2 was used. The inward current was monitored at a holding potential of −80 mV. Calcium ion activated Cl^− current was monitored by applying 500-mscc depolarizing pulses of +100 mV and +50 mV from the holding potential of −80 mV. Adiponectin was supplied to the superfusing bath solution via a silicon tube connected to computer-driven solenoid valves. Data acquisition and analysis were carried out using Digidata 1322A and pCLAMP software.

[2] = test system: AMPK; test: AMPK phosphorylation in vivo (skeletal muscle and liver, immunoblotting); set-up: species or system mice; settings: adiponectin 30 μg per 10 g body weight, 10 min
Description: (§1) Mouse full-length adiponectin was generated as described in the following documents (Nature Med. 8, 1288-1295 (2002); Nature Med. 7, 941-946 (2001); Nature 423, 762-769 (2003)).
(§2) Real-time PCR was carried out according to the method described in the following documents (Nature Med. 13, 332-339 2007); Nature 423, 762-769 (2003); J. Biol. Chem. 281, 8748-8755 (2006)). Total RNA was prepared from cells or tissues by using Trizol (Invitrogen) according to the manufacturer's instructions. Quantification of mRNA was conducted using a real-time PCR method (Nature 423, 762-769 (2003)) with slight modifications. The procedures used for immunoblotting are described in the following documents (Nature Med. 7, 941-946 (2001); J. Biol. Chem. 281, 26602-26614 (2006); J. Biol. Chem. 281, 8748-8755 (2006)). The livers or muscles were freeze-clamped in liquid nitrogen in situ (Nature Med. 7, 941-946 (2001); J. Biol. Chem. 281, 26602-26614 (2006); J. Biol. Chem. 281, 8748-8755 (2006)).

[3] = test system: PGC-1α (Ppargc1a); test: Ppargc1a mRNA levels in skeletal muscle treated with adiponectin; assay type: in vivo, mice; settings: control littermates; adiponectin 30 μg per 10 g body weight, 10 min
Description: as §1, §2

[4] = test system: C2C12 myocytes; test: NAD+/NADH measurements in C2C12 myocytes; assay type: cell-based, mouse; settings: C2C12 myocytes treated with adiponectin
Description: NAD^+ and NADH nucleotides were directly measured by the method described in the following document (Nature, 458, 1056-1060 (2009)). Whole skeletal muscles or two 10 cm dishes of C2C12 myocytes were homogenized in 200 μl of an acid extraction buffer to measure the NAD^+ concentration, or 200 μl of alkali extraction to obtain the NADH concentration. Next, homogenates were neutralized and the concentration of nucleotides was measured fluorimetrically after an enzymatic cycling reaction using 5 μl of a sample. Values for both nucleotides were detected within the linear range. NAD^+/NADH ratios were calculated by comparing the ratios obtained from each animal or from parallel cell dishes in each experiment.

B1: adiponectin: recombinant murine full-length adiponectin, internal ligand of adiponectin receptor 1 (protein, UniProt Q60994 1-247, looked up)
chain: MLLLQALLFLLILPSHAEDDVTTTEELAPALVPPPKGTCAGWMAGIPGHPGHNGTPGRDGRDGTPGEKGEKGDAGLLGPKGETGDVGMTGAEGPRGFPGTPGRKGEPGEAAYVYRSAFSVGLETRVTVPNVPIRFTKIFYNQQNHYDGSTGKFYCNIPGLYYFSYHITVYMKDVKVSLFKKDKAVLFTYDQYQEKNVDQASGSVLLHLEVGDQVWLQVYGDGDHNGLYADNVNDSTFTGFLLYHDTN
modifications: full-length
calcium-ion activated Cl- current response ([1]; control oocytes (no AdipoR1 cRNA), adiponectin 30 μg/ml): not observed
inward current responses ([1]; oocytes expressing AdipoR1, holding potential -80 mV, adiponectin 30 μg/ml 30 sec): induced
intracellular calcium levels by calcium-ion activated Cl- current ([1]; oocytes injected with AdipoR1 complementary RNA, adiponectin 30 μg/ml): increase
phosphorylation of AMPK in liver ([2]; both genotypes (control and muscle-R1KO)): increased
phosphorylation of AMPK in muscle ([2]; control littermates): increased
expression levels of Ppargc1a in muscle [3]: increased
NAD+ and NADH contents [4]: increased
NAD+/NADH ratio [4]: increased
